The test system of one assay is Plus3 domain of Rtf1. The conditions noted are these: phosphorylated CTR peptide; pdb 4L1U; ref Wier et al. 2013; cited from earlier work.
Assay [1] has as its system S. pombe RNA triphosphatase Pct1. The conditions noted are these: ref Pei et al. 2001b; cited from earlier work.
In a further assay the target is T1, Pct1 (Schizosaccharomyces pombe, UniProt Q9P6Q6).
T1 sequence (Q9P6Q6 1-303): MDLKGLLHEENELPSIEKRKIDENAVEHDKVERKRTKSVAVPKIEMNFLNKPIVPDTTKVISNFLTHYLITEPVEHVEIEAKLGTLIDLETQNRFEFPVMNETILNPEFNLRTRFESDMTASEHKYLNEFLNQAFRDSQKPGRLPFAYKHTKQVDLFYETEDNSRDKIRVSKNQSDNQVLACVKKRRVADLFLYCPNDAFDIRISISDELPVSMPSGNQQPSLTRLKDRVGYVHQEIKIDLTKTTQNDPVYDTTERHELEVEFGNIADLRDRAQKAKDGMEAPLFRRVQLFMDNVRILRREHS
The format is binding, S. pombe. The conditions noted are these: 180-fold higher than Kd for Spt5-(801–898).

The target of assay [2] is T2, S. pombe RNA triphosphatase Pct1 (wild type) (S. pombe, UniProt Q9P6Q6 1-303).
T2 sequence (looked up): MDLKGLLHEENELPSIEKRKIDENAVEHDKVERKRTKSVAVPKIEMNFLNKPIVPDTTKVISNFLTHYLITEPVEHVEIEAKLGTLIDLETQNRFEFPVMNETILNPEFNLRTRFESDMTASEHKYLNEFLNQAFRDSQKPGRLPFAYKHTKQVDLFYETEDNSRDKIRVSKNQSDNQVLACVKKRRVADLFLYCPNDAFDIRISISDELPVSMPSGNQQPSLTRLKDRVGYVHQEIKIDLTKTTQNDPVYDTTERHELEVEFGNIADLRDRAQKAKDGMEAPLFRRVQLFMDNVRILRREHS
The experiment in a line: fluorescence polarisation. (Fluorescence polarisation rises when a labelled molecule tumbles more slowly, as on binding a larger partner.)

Assay [3] has as its target T3, S. pombe RNA triphosphatase Pct1 M100R (S. pombe, UniProt Q9P6Q6 1-303, M100R).
T3 sequence (looked up): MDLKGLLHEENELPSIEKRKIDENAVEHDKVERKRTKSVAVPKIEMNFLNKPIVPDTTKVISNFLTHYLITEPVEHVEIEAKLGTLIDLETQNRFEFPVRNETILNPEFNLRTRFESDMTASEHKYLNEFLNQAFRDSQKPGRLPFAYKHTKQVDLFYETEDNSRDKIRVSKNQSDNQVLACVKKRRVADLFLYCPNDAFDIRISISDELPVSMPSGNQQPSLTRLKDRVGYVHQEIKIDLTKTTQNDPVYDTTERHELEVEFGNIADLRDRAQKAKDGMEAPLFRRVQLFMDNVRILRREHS
Briefly: fluorescence polarisation.

Assay [4] addresses T4, S. pombe RNA triphosphatase Pct1 M100A (S. pombe, UniProt Q9P6Q6 1-303, M100A).
T4 sequence (looked up): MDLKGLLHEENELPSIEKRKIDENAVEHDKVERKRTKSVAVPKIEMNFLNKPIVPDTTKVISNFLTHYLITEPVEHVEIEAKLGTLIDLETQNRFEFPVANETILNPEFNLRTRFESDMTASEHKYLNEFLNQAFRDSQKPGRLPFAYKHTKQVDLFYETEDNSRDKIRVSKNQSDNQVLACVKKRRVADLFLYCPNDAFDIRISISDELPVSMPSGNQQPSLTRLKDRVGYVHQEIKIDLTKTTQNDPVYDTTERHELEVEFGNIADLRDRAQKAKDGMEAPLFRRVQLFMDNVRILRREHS
Briefly: fluorescence polarisation.

The next assay deals with T5, Pct1 M100A (Schizosaccharomyces pombe, UniProt Q9P6Q6, M100A).
T5 sequence (Q9P6Q6 1-303 M100A): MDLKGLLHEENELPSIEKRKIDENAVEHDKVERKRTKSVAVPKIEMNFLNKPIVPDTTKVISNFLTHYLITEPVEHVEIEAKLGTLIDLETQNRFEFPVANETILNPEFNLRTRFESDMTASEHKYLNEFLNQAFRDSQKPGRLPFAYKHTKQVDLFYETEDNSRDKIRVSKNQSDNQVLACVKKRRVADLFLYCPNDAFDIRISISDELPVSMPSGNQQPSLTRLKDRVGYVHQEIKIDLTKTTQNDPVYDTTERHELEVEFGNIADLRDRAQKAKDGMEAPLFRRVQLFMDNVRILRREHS
Briefly: Fluorescence polarization binding of Spt5-. Further details: species or system S. pombe. The conditions noted are these: Pct1 M100A versus wild-type Pct1.

Assay [5] has as its target T2, S. pombe RNA triphosphatase Pct1 (wild …). Briefly: fluorescence polarisation. The source holds these as a separate data set.
The target is the same in assay [6]. Briefly: fluorescence polarisation. This is another data set of the same source.
The target is the same in assay [7]. The experiment in a line: crystal structure.

Read-outs that look alike come from different tables or passages of the source. Where no end group is shown, it is not given here. fluorescein = fluorescein label

As to SGSRTPPMYGSQ, in the assay with Plus3 domain of Rtf1, the “binding to Rtf1 Plus3 domain in crystal” value is listed as “bound”. Turning to `O=P(O)(O)OP(=O)(O)OP(=O)(O)O` [tripolyphosphate], the competitive inhibition result in [1] is reported as “high-affinity competitive inhibitor”. On to SGSKTPAWNSGSKTPAWNSGSK, for which the “Kd relative to the Kd of Pct1 for the longer Spt5-(801–898) ligand” value on Pct1 is listed as 180 fold.

B1: BODIPY-FL-N(Cys)-Spt5-(801-898) (domain or fragment, S. pombe)
chain: CISTADGPNVPNWAQGARTPAVANGSRTPAWNTGSRTPAWNSGSKTPAWNSGSRTPAWNSGNKTPAWNAGSRTPAWNSGNKTPAWNVGNKTPAWNSGAK
modifications: BODIPY-FL at the N-terminus via maleimide chemistry (on the added N-terminal cysteine)
For B1, the Kd in assay [2] is 0.68 ± 0.1 µM; in [3] it was 21.4 ± 2.4 µM; in [4], 1.4 ± 0.15 µM.

B2: Spt5-(801–898): purified recombinant Spt5-(801–898) protein, comprising 10 nonamer repeats, labeled at the N-terminus with BODIPY-FL (protein)
chain: CISTADGPNVPNWAQGARTPAVANGSRTPAWNTGSRTPAWNSGSKTPAWNSGSRTPAWNSGNKTPAWNAGSRTPAWNSGNKTPAWNVGNKTPAWNSGAK
modifications: BODIPY-FL at the N-terminus via maleimide chemistry (on the added N-terminal cysteine)
With B2, the “effect of M100A on Spt5 CTD binding” value with Pct1 M100A was “twofold”.

B3: fluorescein-labeled 22-amino acid synthetic Spt5 CTD peptide SGSKTPAWNSGSKTPAWNSGSK (peptide)
peptide: fluorescein-SGSKTPAWNSGSKTPAWNSGSK
Take B3: binding in assay [5] was put at a Kd of 124 ± 10 µM.

B4: unphosphorylated 22-amino acid synthetic Spt5 CTD peptide SGSKTPAWNSGSKTPAWNSGSK (untagged) (peptide)
peptide: SGSKTPAWNSGSKTPAWNSGSK
B4: the affinity in assay [6], expressed as Ki, was 79 ± 9 µM.

B5: 18-mer Spt5-CTD peptide TPAWNSGSRTPAWNSGSK, Spt5-(845-862) (peptide)
peptide: TPAWNSGSRTPAWNSGSK
Take B5: the “stoichiometry N” value in assay [7] is 2 peptides per Pct1 homodimer.

The Kd is the concentration at which binding is half-saturated. High values mean lower affinity, low ones higher affinity. The term Ki denotes a dissociation constant, usually derived from enzyme kinetics or from competition with a known ligand. Read a low Ki as tighter binding.

(Values after article PMC4274631 (RNA, 2015).)
